Key:
Assay type in all cases: cell-based
[1] = tested on: SKBR3, MDA-MB-435, MDA-MB-453, HeLa, MDA-MB-231; experiment: Cytotoxicity dose curves on lines displaying differential HER2 (CD50); conditions: range of HerDox doses
Procedure: FIGS. 17 (A)-(B) illustrates relative cell surface HER subunit levels and cytotoxicity on cell types. FIG. 17 (A) depicts a graph of relative cell surface HER subunit levels as measured by ELISA. Cells were incubated with anti-HER subunit antibodies followed by HRP-conjugated secondary antibodies using standard procedures. Relative cell numbers were measured by crystal violet staining and quantified by measuring crystal violet absorbance at 590 nm. Relative subunit levels are reported as the ELISA signal of each cell population normalized by the relative cell number, or Abs 450 run/590 nm. FIG. 17 (B) depicts toxicity to cells displaying differential HER2. Cytotoxicities from a range of HerDox doses were assessed on each cell line by metabolic assay and confirmed by crystal violet stain. CD50 values shown in log scale were determined by non-linear regression analyses of HerDox dose curves using a scientific graphing program and confirmed using a calculator. The relative HER2 level of each cell line is shown next to each CD50 value.
The inventors measured cell surface levels of HER subunits on various cell lines and types described herein, as previously described levels may not reflect the actual levels in the available cells used. The inventors acquired the indicated cell lines from ATCC and the NIH/NCI and profiled these with respect to HER subunit levels (FIG. 17 (A)). […]

[2] = tested on: MDA-MB-435 cells; experiment: Intracellular translocation in live cells, Dox fluorescence microscopy; conditions: for intracellular location of Dox fluorescence: 0.5 uM
Procedure: FIGS. 14 (A)-(B) illustrates comparison of HerDox and Dox intracellular translocation and targets in live cells. MDA-MB-435 cells were incubated with HerDox or free Dox (0.5 uM) at 37° C. Live (unfixed) cells were imaged by brightfield and fluorescence as depicted in […], or DIC and confocal fluorescence, as depicted in FIG. 14 (B), microscopy. Dox is indicated by red or magenta pseudocolor.
To understand the mechanism of HerDox mediated tumor cell death, the inventors examined HER2+ cells microscopically after treatment with HerDox, using Dox fluorescence to detect intracellular location. […] These dynamics, in addition to earlier targeting results, support a receptor-mediated HerDox entry mechanism. Even the intranuclear pattern of Dox when delivered by HerPBK10 differs from free Dox.

[3] = tested on: U251 human glioma cells; experiment: Toxicity to glioma cells, cell counting; conditions: 4 hours, counted after four days
Procedure: FIGS. 20 (A)-(B) illustrates HerDox is toxic to glioma cells. FIG. 20 (A) depicts HER immunofluorescence on U251 human glioma cells. Images were captured using laser scanning fluorescence confocal microscopy. FIG. 20 (B) depicts a graph of HerDox vs. Dox toxicity to U251 cells. Significant differences were determined by 2-tailed tests.
U251 cells growing in dishes were incubated with either HerDox or Dox (at either 0.5 uM or 1 uM) in the culture medium for 4 hours at 37° C., 5% C02, after which fresh complete medium was added to increase the final culture volume approximately four-fold, and the cells maintained at 37° C., 5% C02 for four days. Cells were trypsinized and counted on the last day.

[4] = tested on: MDA-MB-435 (HER2+) cells; experiment: Targeted toxicity, MTT assay, separate dishes; conditions: 0.5 uM Dox conc, 4 h exposure, by three days
Procedure: (§1) FIG. 7 illustrates targeted toxicity. Each cell line was exposed to HerDox (0.5 uM Dox cone), Dox alone (0.5 uM), or HerPBK10 alone for 4 h at 37° C. in complete (i.e. serum-containing) media, followed by aspiration to remove free conjugate, and addition of fresh medium while cells are grown continuously. Cell titer was determined by metabolic (i.e. MTT) assay. FIG. 7 upper panel illustrates the effect of HerDox on MDA-MB-231 (HER2−) and MDA-MB-435 (HER2+) cell survival. Relative surviving cell numbers are represented as a % of corresponding untreated cells. FIG. 7 lower panel illustrates comparison of HerDox, Dox alone, or HerPBK10 alone on HER2− and HER2+ cell survival. Relative survival (as % of untreated cells) is shown for Day 3 of treatment.
(§2) The inventors compared the effect of HerDox or Dox alone at equivalent dosages (0.5 uM with respect to Dox concentration) on HER2+ and HER2− breast cancer cells in separate dishes. By three days, HerDox reduced HER2+ cell numbers by over 75% whereas HER2− cell survival was unaffected (FIG. 7). […] These findings emphasize the importance of targeting by showing that the untargeted drug affects nontarget (i.e. HER2−) cells. Importantly, the protein carrier, HerPBK10, alone at the equivalent concentration of protein in HerDox (0.1 uM) had no effect on either cell line (FIG. 7), including a lack of proliferation induction. To test receptor targeting, the inventors used free heregulin ligand (Her or eHRG) as a competitive inhibitor. […] As a final in vitro challenge, the inventors tested whether HerDox induces toxicity specifically to HER2+ cells in a mixed culture of HER2+ and HER2− breast cancer cells. To do this, the inventors produced a HER2− cell line tagged with green fluorescent protein (GFP) for cell identification in the mixed culture (FIG. 9 (A)). […] Altogether, these findings indicate that HerDox has the capacity to preferentially target toxicity to HER2+ cells. […] Moreover, the preferential cell killing of HER2+ cells in a mixed culture of HER2+ and HER2− cells implies that after death and lysis of the target cells, the Dox released into those cells is incapable of continuing to induce toxicity to HER2− cells. To further confirm the stability of HerDox in cell culture, HerDox was recovered from culture media in separate experiments at indicated time points and electrophoresed on an agarose gel, which was then illuminated by UV to detect Dox and stained with Coomassie blue to detect HerPBK10 protein (FIG. 9 (C)). […] Co-migration of HerPBK10 bands further verified that the conjugates remained intact in the cell media.

[5] = tested on: MDA-MB-231 (HER2−) cells; experiment: Targeted toxicity, MTT assay, separate dishes; conditions: HerDox/Dox 0.5 uM Dox; HerPBK10 0.1 uM; day 3
Procedure: as §1, §2

B1: HerDox: non-covalent complex of HerPBK10, a small double-stranded nucleic acid and intercalated Dox (conjugate)
chain: LPPRLKEMKSQESAAGSKLVLRCETSSEYSSLRFKWFKNGNELNRKNKPQNIKIQKKPGKSELRINKASLADSGEYMCKVISKLGNDSASANITIVESNEIITGMPASTEGAYVSSESPIRISVSTEGANTSSSTSTSTTGTSHLVKCAEKEKTFCVNGGECFMVKDLSNPSRYLCKCQPGFTGARCTENVPMKVQNQEKAEELYMRRAAMYEEGPPPSYESVVSAAPVAAALGSPFDAPLDPPFVPPRYLRPTGGRNSIRYSELAPLFDTTRVYLVDNKSTDVASLNYQNDHSNFLTTVIQNNDYSPGEASTQTINLDDRSHWGGDLKTILHTNMPNVNEFMFTNKFKARVMVSRLPTKDNQVELKYEWVEFTLPEGNYSETMTIDLMNNAIVEHYLKVGRQNGVLESDIGVKFDTRNFRLGFDPVTGLVMPGVYTNEAFHPDIILLPGCGVDFTHSRLSNLLGIRKRQPFQEGFRITYDDLEGGNIPALLDVDAYQASLKDDTEQGGGGAGGSNSSGSGAEENSNAAAAAMQPVEDMNDHAIRGDTFATRAEEKRAEAEAAAEAAAPAAQPEVEKPQKKPVIKPLTEDSKKRSYNLISNDSTFTQYRSWYLAYNYGDPQTGIRSWTLLCTPDVTCGSEQVYWSLPDMMQDPVTFRSTRQISNFPVVGAELLPVHSKSFYNDQAVYSQLIRQFTSLTHVFNRFPENQILARPPAPTITTVSENVPALTDHGTLPLRNSIGGVQRVTITDARRRTCPYVYKALGIVSPRVLSSRTFKKKKKKKKKK
modifications: left off: small tags and cut ends
notes: non-covalent complex of HerPBK10, a small double-stranded nucleic acid and intercalated Dox
For B1, the “relation of CD50 to cell surface HER2 level” value [1] was “inversely correlates with cell surface HER2 level”, the “intracellular location of Dox fluorescence” value ([2]; 0 min of uptake) was “mostly at the cell periphery” and the “intracellular location of Dox fluorescence” value ([2]; 60 min) was “accumulated in the nucleus”. For the same molecule, the “intranuclear pattern of Dox” value ([2]; live cells, confocal) was “preferentially accumulates in nucleolar structures”, the “toxicity relative to the equivalent concentration of Dox” value ([3]; 0.5 uM or 1 uM) was 8-10 times and the “less HerDox eliciting the same toxicity as Dox” value [3] was 10 ×. The “reduction of HER2+ cell numbers” value [4] was “over 75%” and the “effect on HER2− cell survival” value [5] was “unaffected”.

— patent publication US10391180B2, “Self-assembling complex for targeting chemical agents to cells” (CEDARS-SINAI MEDICAL CENTER, priority 2007, dated 2019)
